Results from the RNAGym collection of RNA variant scans (doi:10.7554/elife.90254).

B1: LINE1-mini (parent)
chain: GGCAGAGCUCAACACAGCGUGGCAAAGUGGCUGUGGCUAGACUGCC

Variants of: B1
Test: self-cleavage, relative activity (ratio to wild type); higher = more cleavage; in vitro, sequencing; the parent is a self-cleaving ribozyme

Q: Which self-cleavage does the source give for GGCAGAGCUGAACACAGCGUGGCAGAGUGGCUGUGGCUAGACUGCC [C10G A25G] here?
A: Its self-cleavage is 0.08.

Q: For GGCAGAGCUGAACACAGCGUGGCACAGUGGCUGUGGCUAGACUGCC [C10G A25C], which self-cleavage is on record?
A: Its self-cleavage is 0.1.

Q: For GGCAGAGCUUCACACAGCGUGGCAAAGUGGCUGUGGCUAGACUGCC [C10U A11C], which self-cleavage is on record?
A: The self-cleavage was 0.05.

Q: With GGCAGAGCUUUACACAGCGUGGCAAAGUGGCUGUGGCUAGACUGCC [C10U A11U] as the variant, how does the self-cleavage read?
A: Its self-cleavage is 0.09.

Q: For GGCAGAGCUUGACACAGCGUGGCAAAGUGGCUGUGGCUAGACUGCC [C10U A11G], which self-cleavage is on record?
A: Its self-cleavage is 0.05.

Q: For GGCAGAGCUGAACACAGCGUGGCAAAGUGGCUGUGGUUAGACUGCC [C10G C37U], which self-cleavage is on record?
A: Its self-cleavage is 0.01.

Q: Which self-cleavage does the source give for GGCAGAGCUGAACACAGCGUGGCAAAGUGGCUGUGGGUAGACUGCC [C10G C37G] here?
A: Its self-cleavage is 0.01.

Q: With GGCAGAGCUGAACACAGCGUGGCAAAGUGGCUGUGGAUAGACUGCC [C10G C37A] as the variant, how does the self-cleavage read?
A: The self-cleavage was 0.01.

Q: For GGCAGAGCUUACCACAGCGUGGCAAAGUGGCUGUGGCUAGACUGCC [C10U A12C], which self-cleavage is on record?
A: The self-cleavage was 0.02.

Q: Which self-cleavage does the source give for GGCAGAGCUUAUCACAGCGUGGCAAAGUGGCUGUGGCUAGACUGCC [C10U A12U] here?
A: The self-cleavage was 0.08.

Q: Which self-cleavage does the source give for GGCAGAGCUUAGCACAGCGUGGCAAAGUGGCUGUGGCUAGACUGCC [C10U A12G] here?
A: Its self-cleavage is 0.02.

Q: For GGCAGAGCUGAACACAGCGUGGCAAAGUGGCUGUGGCUAGCCUGCC [C10G A41C], which self-cleavage is on record?
A: The self-cleavage was 0.01.

Q: For GGCAGAGCUGAACACAGCGUGGCAAAGUGGCUGUGGCUAGGCUGCC [C10G A41G], which self-cleavage is on record?
A: The self-cleavage was 0.05.

Q: With GGCAGAGCUGAACACAGCGUGGCAAAGUGGCUGUGGCUAGUCUGCC [C10G A41U] as the variant, how does the self-cleavage read?
A: Its self-cleavage is 0.05.

Q: For GGCAGAGCUGAACACAGCGUGGCAAAGUGGCUGUGGCUAGACUGCG [C10G C46G], which self-cleavage is on record?
A: Its self-cleavage is 0.05.

Q: For GGCAGAGCUGAACACAGCGUGGCAAAGUGGCUGUGGCUAGACUGCA [C10G C46A], which self-cleavage is on record?
A: Its self-cleavage is 0.09.

Q: For GGCAGAGCUGAACACAGCGUGGCAAAGUGGCUGUGGCUAGACUGCU [C10G C46U], which self-cleavage is on record?
A: The self-cleavage was 0.06.

Q: With GGCAGAGCUGAACACAGCGUUGCAAAGUGGCUGUGGCUAGACUGCC [C10G G21U] as the variant, how does the self-cleavage read?
A: Its self-cleavage is 0.14.

Q: For GGCAGAGCUGAACACAGCGUAGCAAAGUGGCUGUGGCUAGACUGCC [C10G G21A], which self-cleavage is on record?
A: The self-cleavage was 0.18.

Q: For GGCAGAGCUGAACACAGCGUCGCAAAGUGGCUGUGGCUAGACUGCC [C10G G21C], which self-cleavage is on record?
A: Its self-cleavage is 0.07.

Q: With GGCAGAGCUGAACACAGCGUGGCAAAGUGGCUGGGGCUAGACUGCC [C10G U34G] as the variant, how does the self-cleavage read?
A: Its self-cleavage is 0.03.

Q: With GGCAGAGCUGAACACAGCGUGGCAAAGUGGCUGCGGCUAGACUGCC [C10G U34C] as the variant, how does the self-cleavage read?
A: The self-cleavage was 0.04.

Q: For GGCAGAGCUGAACACAGCGUGGCAAAGUGGCUGAGGCUAGACUGCC [C10G U34A], which self-cleavage is on record?
A: Its self-cleavage is 0.03.

Q: With GGCAGAGCUGAACACAGCGUGGCAAAGUGGUUGUGGCUAGACUGCC [C10G C31U] as the variant, how does the self-cleavage read?
A: The self-cleavage was 0.05.

Q: With GGCAGAGCUGAACACAGCGUGGCAAAGUGGGUGUGGCUAGACUGCC [C10G C31G] as the variant, how does the self-cleavage read?
A: The self-cleavage was 0.02.

Q: For GGCAGAGCUGAACACAGCGUGGCAAAGUGGAUGUGGCUAGACUGCC [C10G C31A], which self-cleavage is on record?
A: The self-cleavage was 0.04.

Q: With GGCAGAGCUGAACAAAGCGUGGCAAAGUGGCUGUGGCUAGACUGCC [C10G C15A] as the variant, how does the self-cleavage read?
A: Its self-cleavage is 0.04.

Q: Which self-cleavage does the source give for GGCAGAGCUGAACAUAGCGUGGCAAAGUGGCUGUGGCUAGACUGCC [C10G C15U] here?
A: The self-cleavage was 0.09.

Q: For GGCAGAGCUGAACAGAGCGUGGCAAAGUGGCUGUGGCUAGACUGCC [C10G C15G], which self-cleavage is on record?
A: Its self-cleavage is 0.03.

Q: Which self-cleavage does the source give for GGCAGAGCUGAACACAGCGUGGCGAAGUGGCUGUGGCUAGACUGCC [C10G A24G] here?
A: The self-cleavage was 0.1.

Q: Which self-cleavage does the source give for GGCAGAGCUGAACACAGCGUGGCUAAGUGGCUGUGGCUAGACUGCC [C10G A24U] here?
A: The self-cleavage was 0.15.

Q: With GGCAGAGCUGAACACAGCGUGGCCAAGUGGCUGUGGCUAGACUGCC [C10G A24C] as the variant, how does the self-cleavage read?
A: Its self-cleavage is 0.06.

Q: Which self-cleavage does the source give for GGCAGAGCUGAACGCAGCGUGGCAAAGUGGCUGUGGCUAGACUGCC [C10G A14G] here?
A: The self-cleavage was 0.09.

Q: With GGCAGAGCUGAACCCAGCGUGGCAAAGUGGCUGUGGCUAGACUGCC [C10G A14C] as the variant, how does the self-cleavage read?
A: Its self-cleavage is 0.04.

Q: For GGCAGAGCUGAACUCAGCGUGGCAAAGUGGCUGUGGCUAGACUGCC [C10G A14U], which self-cleavage is on record?
A: The self-cleavage was 0.05.

Q: Which self-cleavage does the source give for GGCAGAGCUGAACACAGCGUGGGAAAGUGGCUGUGGCUAGACUGCC [C10G C23G] here?
A: The self-cleavage was 0.07.

Q: For GGCAGAGCUGAACACAGCGUGGUAAAGUGGCUGUGGCUAGACUGCC [C10G C23U], which self-cleavage is on record?
A: The self-cleavage was 0.09.

Q: With GGCAGAGCUGAACACAGCGUGGAAAAGUGGCUGUGGCUAGACUGCC [C10G C23A] as the variant, how does the self-cleavage read?
A: Its self-cleavage is 0.08.

Q: For GGCAGAGCUGAACACAGCGUGGCAAAGUGGCUGUGGCUAGACGGCC [C10G U43G], which self-cleavage is on record?
A: Its self-cleavage is 0.02.

Q: For GGCAGAGCUGAACACAGCGUGGCAAAGUGGCUGUGGCUAGACCGCC [C10G U43C], which self-cleavage is on record?
A: The self-cleavage was 0.02.

Q: For GGCAGAGCUGAACACAGCGUGGCAAAGUGGCUGUGGCUAGACAGCC [C10G U43A], which self-cleavage is on record?
A: The self-cleavage was 0.01.

Q: Which self-cleavage does the source give for GGCAGAGCUGAACACAGCGUGGCAAAGUGGCUGUGGCUGGACUGCC [C10G A39G] here?
A: Its self-cleavage is 0.03.

Q: For GGCAGAGCUGAACACAGCGUGGCAAAGUGGCUGUGGCUUGACUGCC [C10G A39U], which self-cleavage is on record?
A: The self-cleavage was 0.16.

Q: For GGCAGAGCUGAACACAGCGUGGCAAAGUGGCUGUGGCUCGACUGCC [C10G A39C], which self-cleavage is on record?
A: Its self-cleavage is 0.02.

Q: For GGCAGAGCUGAACACAGCGUGGCAAAGUGGCUGUGGCUACACUGCC [C10G G40C], which self-cleavage is on record?
A: Its self-cleavage is 0.02.

Q: For GGCAGAGCUGAACACAGCGUGGCAAAGUGGCUGUGGCUAUACUGCC [C10G G40U], which self-cleavage is on record?
A: The self-cleavage was 0.02.

Q: With GGCAGAGCUGAACACAGCGUGGCAAAGUGGCUGUGGCUAAACUGCC [C10G G40A] as the variant, how does the self-cleavage read?
A: The self-cleavage was 0.01.

Q: For GGCAGAGCUGAACACAGCGUGGCAACGUGGCUGUGGCUAGACUGCC [C10G A26C], which self-cleavage is on record?
A: Its self-cleavage is 0.11.

Q: With GGCAGAGCUGAACACAGCGUGGCAAGGUGGCUGUGGCUAGACUGCC [C10G A26G] as the variant, how does the self-cleavage read?
A: The self-cleavage was 0.12.

Q: With GGCAGAGCUGAACACAGCGUGGCAAUGUGGCUGUGGCUAGACUGCC [C10G A26U] as the variant, how does the self-cleavage read?
A: Its self-cleavage is 0.15.

Q: With GGCAGAGCUGAACACAGCCUGGCAAAGUGGCUGUGGCUAGACUGCC [C10G G19C] as the variant, how does the self-cleavage read?
A: Its self-cleavage is 0.06.

Q: With GGCAGAGCUGAACACAGCAUGGCAAAGUGGCUGUGGCUAGACUGCC [C10G G19A] as the variant, how does the self-cleavage read?
A: The self-cleavage was 0.1.

Q: With GGCAGAGCUGAACACAGCUUGGCAAAGUGGCUGUGGCUAGACUGCC [C10G G19U] as the variant, how does the self-cleavage read?
A: The self-cleavage was 0.11.

Q: Which self-cleavage does the source give for GGCAGAGCUGAACACAGCGUGGCAAAGUGGCUGUGCCUAGACUGCC [C10G G36C] here?
A: Its self-cleavage is 0.03.

Q: With GGCAGAGCUGAACACAGCGUGGCAAAGUGGCUGUGUCUAGACUGCC [C10G G36U] as the variant, how does the self-cleavage read?
A: The self-cleavage was 0.02.

Q: Which self-cleavage does the source give for GGCAGAGCUGAACACAGCGUGGCAAAGUGGCUGUGACUAGACUGCC [C10G G36A] here?
A: The self-cleavage was 0.01.
